The values below come from US6649409.

The target in assay [1] is HIV-1 BX08 envelope glycoprotein gp160 expressed from the wild type gene wt.gp160BX08 (HIV-1 BX08). The assay is described as follows: flow cytometry (FACS) on transfected 293 cells, mean of duplicates. (In general: In flow cytometry, cells or beads pass a laser one at a time.)
Assay [2] concerns the target HIV-1 BX08 envelope glycoprotein gp160 expressed from the synthetic gene syn.gp160BX08 (HIV-1 BX08). The description is as above.
The target in assay [3] is HIV-1 BX08 envelope glycoprotein gp160 expressed from the wild type gene wt.gp160BX08 (HIV-1 BX08). Kind of assay: flow cytometry (FACS) on transfected 293 cells, PE-labelled rat anti-mouse IgG1 as secondary.
Assay [4] deals with HIV-1 BX08 envelope glycoprotein gp160 expressed from the synthetic gene syn.gp160BX08 (HIV-1 BX08). Described as above.

Several values for one entry are separate records, joined by “and”; a condition that tells them apart may be missing. Equal values may be shown once.

Regarding “mouse monoclonal IgG antibody to HIV gp120 (NEA-9301, NEN Life Science Products Inc., Boston)”, the mean % of cells stained was determined as 11% in assay [1] and 48% in assay [2]. Further, the % of cells stained (C: Primary Ab and secondary Ab added) in assay [3] is 14.4% and 7.51%; in assay [4], 36.9% and 58.4%. Moreover, the % of cells stained, C-A (less control without primary antibody) in assay [3] is 11.4% and 5.56%; in assay [4], 34.3% and 55.6%. Also, the % of cells stained, C-B (less autofluorescence control) is 13% and 5.99% in assay [3]; 34.1% and 56.3% in assay [4].
